One data set deals with UP1 (UniProt P09651 1-196). In words: ITC; 50 mM KCl; one-site fit, Kd not in material; EMSA: 50 mM Tris-HCl pH 7.4, 50 mM KCl, 1 mM EDTA, 1 mM Na3VO4, 5 mM NaF, 1 mM DTT, 8% glycerol, 25 C, 30 nM RNA; ITC: 10 mM KPi, 50 mM KCl, 25 C, 8 uM UP1. Particulars: protein: recombinant; tags: none (GST removed by PreScission); rG4, two stacked G-tetrads.
For data set [1], the target named is T1, GST-hnRNPA1 (UniProt P09651 1-372). In words: EMSA; 50 mM KCl; bound at 1:1 ratio; EMSA: 50 mM Tris-HCl pH 7.4, 50 mM KCl, 1 mM EDTA, 1 mM Na3VO4, 5 mM NaF, 1 mM DTT, 8% glycerol, 25 C, 30 nM RNA; ITC: 10 mM KPi, 50 mM KCl, 25 C, 8 uM UP1. The note with it: protein: recombinant; tags: GST (N-terminal, pGEX4T1); label: Cy5.5 5'; rG4.
T1 sequence (P09651 whole entry): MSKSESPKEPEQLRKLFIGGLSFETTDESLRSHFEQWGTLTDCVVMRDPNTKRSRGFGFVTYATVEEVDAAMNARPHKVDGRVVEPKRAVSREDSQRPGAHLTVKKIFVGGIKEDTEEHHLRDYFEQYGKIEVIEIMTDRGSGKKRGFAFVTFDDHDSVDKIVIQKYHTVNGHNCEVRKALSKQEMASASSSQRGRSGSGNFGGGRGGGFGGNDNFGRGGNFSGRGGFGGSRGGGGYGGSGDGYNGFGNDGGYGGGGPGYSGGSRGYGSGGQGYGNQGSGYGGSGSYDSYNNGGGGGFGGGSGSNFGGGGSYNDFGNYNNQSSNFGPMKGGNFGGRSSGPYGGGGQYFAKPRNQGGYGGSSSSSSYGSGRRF
In data set [2] the target is T1, GST-hnRNPA1. In words: EMSA; 10-fold molar excess of protein; EMSA: 50 mM Tris-HCl pH 7.4, 50 mM KCl, 1 mM EDTA, 1 mM Na3VO4, 5 mM NaF, 1 mM DTT, 8% glycerol, 25 C, 30 nM RNA; ITC: 10 mM KPi, 50 mM KCl, 25 C, 8 uM UP1. The note with it: protein: recombinant; tags: GST (N-terminal, pGEX4T1); unable to form rG4. For orientation: A gel shift assay detects complexes by their altered migration in electrophoresis.

UP1, sequence (P09651 1-196): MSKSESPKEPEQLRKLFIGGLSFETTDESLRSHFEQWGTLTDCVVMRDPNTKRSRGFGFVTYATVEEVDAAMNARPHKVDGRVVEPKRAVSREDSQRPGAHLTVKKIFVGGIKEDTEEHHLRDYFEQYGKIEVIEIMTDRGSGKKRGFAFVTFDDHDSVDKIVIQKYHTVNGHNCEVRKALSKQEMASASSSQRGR

Consider GGUGGCGGCGG (structured_RNA) [utr-c], for which, in the data set with UP1, the binding result is listed as “binds”.
For the molecule GCAGCGGCGGCGGCAGUGGCGGCGGCGAAGGUGGCGGCGGC (structured_RNA) [41-mer 5'UTR (utr-c + utr-z)], the binding result in the data set with GST-hnRNPA1 [1] is “binds”.
GCAGCGCCAGCCGCAGUCGCGUCCGCGAACGUAGCCGCCGC (ssRNA) [41-mer 5'UTRmut]: the binding result with GST-hnRNPA1 [2] is “no binding”.

The values are drawn from article PMC12449053, “Cortolezzis Ylenia Formal analysis Investigation Methodology Department of Medicine, Laboratory of Biochemistry, University of Udine, 33100 Udine, Italy”.
